From article PMC7385124, “The molecular basis of thioalcohol production in human body odour” (Scientific Reports, 2020) come the findings set out here.

By Km is commonly meant the substrate concentration at which the rate is half of its maximum. In general, kcat refers to the maximal rate divided by the concentration of active sites. Broadly, the kcat/Km is the second-order rate constant that governs catalysis at low substrate concentration. As usually defined, the stoichiometry N is a count of units in the complex or per binding partner.

Data set [1] concerns CC(C)(CCO)SC[C@H](N)C(=O)O. The data set is described as follows: purified protein, by the assay type. Details: DTNB thiol release, A412, continuous steady-state Michaelis-Menten kinetics of C-S lyase. To be noted: pH 7.8; 37.0 °C. The method, then: (§1) In vitro activity assays were performed using an Epoch2 (BioTek) plate reader. Reactions were measured in 96-well plate. A continuous assay, described previously[3] was used to measure 3M3SH. A 200 μL reaction contained […], variable amounts of substrate and 0.4 mM DTNB in 50 mM KPi and 200 mM NaCl, pH 7.8. […] Each reaction was incubated at 37 °C for 30 min. Release of the thiol 3M3SH was measured by reaction with DTNB to form 2-nitro-5-thiobenzoic acid (TNB) which is measured at A412 nm every minute. Background rate of DTNB decomposition was subtracted in each assay. Michaelis–Menten plots were derived from 6 to 8 substrate concentrations using Prism Version 5.01 (GraphPad) to calculate the Kcat and KM. Enzyme concentrations were assumed to be the concentration of PLP-bound enzyme with two active sites per enzyme. Velocity curves for all in vitro kinetics are shown in the supplementary information (Supplementary Information Figures S10–S12). Next, we cloned and overexpressed genes encoding a representative range of PatB-type enzymes, with two MetC proteins as controls (Fig. 2, denoted by coloured dots) and purified the proteins for biochemical analysis.

Data set [2] has as its system CCCC(C)(CCO)SC[C@H](N)C(=O)O. The data set is described as follows: purified protein, by the assay type. Set-up: DTNB thiol release, A412, continuous steady-state Michaelis-Menten kinetics of C-S lyase. To be noted: pH 7.8; 37.0 °C. The method, then:
as §1

Data set [3] addresses Staphylococcus hominis PatB (cysteine-thiol lyase, PLP-dependent C-S lyase) (Staphylococcus hominis). In words: crystal structure; ShPatB at 15 mg/mL in 20 mM Tris pH 8, 50 mM NaCl; hanging drops, 4% Tacsimate pH 6, 12% PEG 3,350, room temperature; without and with 20 mM L-cycloserine.

For EcTnaA (Escherichia coli K-12), in data set [1], the Km amounted to 3300 µM, the kcat turned out to be 0.0117 s⁻¹ and the kcat/Km was determined as 3.33 M⁻¹ s⁻¹. In data set [2], the Km worked out at 2150 µM, the kcat was 0.051 s⁻¹ and the kcat/Km was 23.7 M⁻¹ s⁻¹.
For the substance “Staphylococcus hominis PatB (cysteine-thiol lyase, PLP-dependent C-S lyase) (enzyme)”, the stoichiometry N in data set [3] was 2.
